In US20050036947A1, “Target-specific activatable polymeric imaging agents” (General Electric Company, priority 2003, published 2005):
Where no end group is shown, it is not given here. [ ]: non-standard residue; d: D form. Hyp = O=C(O)[C@@H]1C[C@@H](O)CN1

What was measured:
[1] = tested on: α-fetoprotein (“AFP”) receptor; conditions: MCF-7 human breast cancer cells; cited from earlier work
[2] = Relaxivity of the contrast agent (effect on T1 relaxation of water protons); type: physicochemical; conditions: for relaxivity: globular vs elongated conformation
Text: When the carrier molecule is in an elongated conformation, the chelator entity, which provides the MR activity, is free to rotate about its attachment point to the main chain, allowing a […] T1 relaxation time of the surrounding water protons, which are the source of the MR signal. When the carrier molecule is in a globular or highly folded conformation, the paramagnetic ions on the chelator entities tumble at a slower rate (along with the entire molecule). […] A low relaxivity or long relaxation time is associated with an elongated molecule such as a highly substituted Gd-DTPA-PLL, in which the Gd can rotate rapidly, having a relaxivity of about 8 sec^−1 mM^−1. When the relaxivity of a peptide contrast agent was high, the uptake coefficient of such an agent was invariably low, evidently due to the absence of a reptation movement of the contrast agent molecule, resulting in the exclusion of the contrast agent from narrow passages. Thus, it is important to establish that the peptides being compared for optimum length are all of the same conformation.

[3] = Cross-sectional diameter of the conjugated polymer; type: physicochemical; conditions: highly conjugated

Substance	bind to α-fetoprotein (“AFP”) receptor [1]	relaxivity [2]	relaxivity in bulk water ([2]; highly conjugated (degree of conjugation about 90 percent or higher)) [mM⁻¹ s⁻¹]	cross-sectional diameter [3]
EMTOVNOG (EMT[Hyp]VN[Hyp]G) [linear octapeptide; O represents 4-hydroxyproline]	bind			
Gd-DTPA-PLL		about 8 sec^−1 mM^−1	6.8 to 7.8	about 25 angstroms
EMTOVNOGQ (EMT[Hyp]VN[Hyp]GQ; also: cyclic, mode not given here) [cyclic peptide; O represents 4-hydroxyproline]	bind			
albumin		about 15 sec^−1 mM^−1		
